Our source for the Kd values is paper PMC2880176.

Series [1] deals with MBP-#γA (5-finger artificial zinc finger protein) (artificial). As to the kind of experiment: EMSA. A general note: Mobility shift assays separate free from complexed probe on a gel.
Series [2] concerns MBP-#γA-opt (5-finger artificial zinc finger protein) (artificial). As to the kind of experiment: EMSA.
For series [3], the system named is gg1 (6-finger artificial zinc finger protein) (artificial). As to conditions: cited from earlier work.

As a reminder, the Kd is the free concentration of one partner at which half of the binding sites on the other are occupied at equilibrium, for simple one-to-one binding. For “GATGCCGTTTGAGGT (double strand) [γ-globin promoter #γA target site]”, the Kd stood at 3.2 nM in series [1] and 7.1 nM in series [2].
“GTCAAGGCAAGGCTGGCC (double strand) [gg1 target site in γ-globin promoter]”: in series [3], the equilibrium dissociation constant (Kd) is 0.7 nM.
